Assay results reported in patent US20190248860A1 (Stanford University, published 2019).
Positions count from the first letter of the chain named.

Legend:
[1] = biological target: T1, IL-2Rβ ectodomain (amino acids 1-214), recombinant (UniProt P14784 27-240); test: surface plasmon resonance
T1 construct: range 1-214; Used for the SPR and crystal entries; also called IL-2R13; interleukin 2 receptor beta
T1 sequence: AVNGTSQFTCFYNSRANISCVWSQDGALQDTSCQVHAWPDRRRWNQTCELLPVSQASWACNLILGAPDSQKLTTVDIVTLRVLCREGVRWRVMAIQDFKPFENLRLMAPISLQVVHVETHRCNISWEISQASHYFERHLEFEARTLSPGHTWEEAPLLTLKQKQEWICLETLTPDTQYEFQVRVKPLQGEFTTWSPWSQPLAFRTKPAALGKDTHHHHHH

[2] = biological target: T1, IL-2Rβ ectodomain (amino acids 1-214), …; test: method not given; SPR according to Example 10
[3] = biological target: T1, IL-2Rβ ectodomain (amino acids 1-214), …; test: SPR affinities, as told in the structural discussion
[4] = biological target: T2, biotinylated IL-2Rβ ectodomain (C-terminal biotin acceptor peptide and hexahistidine tag) (UniProt P14784 27-240, C-terminally biotinylated on the biotin acceptor peptide (coexpressed BirA ligase)); test: yeast display screen, labeling with 5 nM IL-2Rβ and then SAV-PE
T2 construct: range 1-214; Yeast staining reagent; in the second generation screen used as monomer, then detected with SAV-PE; also called tetrameric IL-2Rβ; monomeric IL-2Rβ
T2 sequence: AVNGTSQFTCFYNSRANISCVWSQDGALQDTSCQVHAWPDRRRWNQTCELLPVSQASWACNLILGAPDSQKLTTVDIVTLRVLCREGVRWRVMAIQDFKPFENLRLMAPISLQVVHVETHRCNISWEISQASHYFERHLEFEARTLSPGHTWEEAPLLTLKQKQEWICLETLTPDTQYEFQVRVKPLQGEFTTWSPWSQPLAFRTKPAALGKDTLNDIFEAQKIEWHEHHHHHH
Experimental: Upon conclusion of selections, round four and round five yeast cultures were spread on SD-CAA plates, which yielded individual yeast colonies. 48 individual yeast clones from both rounds were grown in 96-well block format and screened by labeling with 5 nM IL-2Rβ and then SAV-PE.

B1: IL-2 mutein C5 (ligand)
chain: APTSSSTKKTQLQLEHLLLDLQMILNGINNYKNPKLTRMLTFKFYMPKKATELKHLQCLEEELKHLEEVLNLANSKNFHVTPRDVVSNINVFVLELKGSETTFMCEYADETATIVEFLNRWITFCQSIISTLTHHHHHH
- koff [1]: 0.016 s⁻¹
- Kd [2]: 10 nM

B2: IL-2 mutein D10 (ligand)
chain: B1 chain with H65P, N74H, V80F, T81D
notes: also called IL-2 D10; super-2
- fold affinity gain from wild-type IL-2 [3]: ~300 fold

B3: yeast-displayed IL-2 mutein C5 (ligand)
chain: APTSSSTKKTQLQLEHLLLDLQMILNGINNYKNPKLTRMLTFKFYMPKKATELKHLQCLEEELKHLEEVLNLANSKNFHVTPRDVVSNINVFVLELKGSETTFMCEYADETATIVEFLNRWITFCQSIISTLT
notes: Clone of the second generation yeast display library; also called C5 (yeast clone); not shown: yeast surface display fusion partner and linker encoded by vector pCT302
- binding result [4]: binds
